Source: publication PMC3271731 (Nature, 2011)
Like-named read-outs stand apart in the source and are kept apart here.

B1: Pseudomonas aeruginosa 3-methylcrotonyl-CoA carboxylase β subunit (enzyme, UniProt Q9I297 1-535, looked up)
chain: MAILHTQINPRSAEFAANAATMLEQVNALRTLLGRIHEGGGSAAQARHSARGKLLVRERINRLLDPGSPFLELSALAAHEVYGEEVAAAGIVAGIGRVEGVECMIVGNDATVKGGTYYPLTVKKHLRAQAIALENRLPCIYLVDSGGANLPRQDEVFPDREHFGRIFFNQANMSARGIPQIAVVMGSCTAGGAYVPAMSDETVMVREQATIFLAGPPLVKAATGEVVSAEELGGADVHCKVSGVADHYAEDDDHALAIARRCVANLNWRKQGQLQCRAPRAPLYPAEELYGVIPADSKQPYDVREVIARLVDGSEFDEFKALFGTTLVCGFAHLHGYPIAILANNGILFAEAAQKGAHFIELACQRGIPLLFLQNITGFMVGQKYEAGGIAKHGAKLVTAVACARVPKFTVLIGGSFGAGNYGMCGRAYDPRFLWMWPNARIGVMGGEQAAGVLAQVKREQAERAGQQLGVEEEAKIKAPILEQYEHQGHPYYSSARLWDDGVIDPAQTREVLALALSAALNAPIEPTAFGVFRM
B2: Pseudomonas aeruginosa 3-methylcrotonyl-CoA carboxylase α subunit (enzyme)
chain: MNPDYRSIQRLLVANRGEIACRVMRSARALGIGSVAVHSDIDRHARHVAEADIAVDLGGAKPADSYLRGDRIIAAALASGAQAIHPGYGFLSENADFARACEEAGLLFLGPPAAAIDAMGSKSAAKALMEEAGVPLVPGYHGEAQDLETFRREAGRIGYPVLLKAAAGGGGKGMKVVEREAELAEALSSAQREAKAAFGDARMLVEKYLLKPRHVEIQVFADRHGHCLYLNERDCSIQRRHQKVVEEAPAPGLGAELRRAMGEAAVRAAQAIGYVGAGTVEFLLDERGQFFFMEMNTRLQVEHPVTEAITGLDLVAWQIRVARGEALPLTQEQVPLNGHAIEVRLYAEDPEGDFLPASGRLMLYREAAAGPGRRVDSGVREGDEVSPFYDPMLAKLIAWGETREEARQRLLAMLAETSVGGLRTNLAFLRRILGHPAFAAAELDTGFIARHQDDLLPAPQALPEHFWQAAAEAWLQSEPGHRRDDDPHSPWSRNDGWRSALARESDLMLRCRDERRCVRLRHASPSQYRLDGDDLVSRVDGVTRRSAALRRGRQLFLEWEGELLAIEAVDPIAEAEAAHAHQGGLSAPMNGSIVRVLVEPGQTVEAGATLVVLEAMKMEHSIRAPHAGVVKALYCSEGELVEEGTPLVELDENQA
modifications: biotinylated Lys681 (numbered by the equivalent residue of HsMCC)

Columns and labels:
crystal structure [1] = target: the molecule itself; assay: crystal structure
crystal structure [2] = target: the molecule itself; assay: crystal structure; remark: listed apart in the source

| Protein | stoichiometry N (crystal structure [1]) | stoichiometry N (crystal structure [2]) |
| --- | --- | --- |
| B1 | 6 |  |
| B2 |  | 3 |
